In patent US20110263454A1, “Methods of Identifying Functional Characteristics of Promoters, Transcription Modifying Proteins and Transcription Modulating Agents” (Salk Institute for Biological Studies, priority 2008, published 2011):

B1: RARg: Retinoic acid receptor γ (NR1B3), nuclear hormone receptor cDNA driver (protein, UniProt P13631 1-454, looked up)
Retinoic acid receptor gamma: MATNKERLFAAGALGPGSGYPGAGFPFAFPGALRGSPPFEMLSPSFRGLGQPDLPKEMASLSVETQSTSSEEMVPSSPSPPPPPRVYKPCFVCNDKSSGYHYGVSSCEGCKGFFRRSIQKNMVYTCHRDKNCIINKVTRNRCQYCRLQKCFEVGMSKEAVRNDRNKKKKEVKEEGSPDSYELSPQLEELITKVSKAHQETFPSLCQLGKYTTNSSADHRVQLDLGLWDKFSELATKCIIKIVEFAKRLPGFTGLSIADQITLLKAACLDILMLRICTRYTPEQDTMTFSDGLTLNRTQMHNAGFGPLTDLVFAFAGQLLPLEMDDTETGLLSAICLICGDRMDLEEPEKVDKLQEPLLEALRLYARRRRPSQPYMFPRMLMKITDLRGISTKGAERAITLKMEIPGPMPPLIREMLENPEMFEDDSSQPGPHPNASSEDEVPGGQGKGGLKSPA
B2: CAR: Constitutive Androstane Receptor (NR1I3), cDNA driver (protein, UniProt Q14994 1-352, looked up)
Nuclear receptor subfamily 1 …: MASREDELRNCVVCGDQATGYHFNALTCEGCKGFFRRTVSKSIGPTCPFAGSCEVSKTQRRHCPACRLQKCLDAGMRKDMILSAEALALRRAKQAQRRAQQTPVQLSKEQEELIRTLLGAHTRHMGTMFEQFVQFRPPAHLFIHHQPLPTLAPVLPLVTHFADINTFMVLQVIKFTKDLPVFRSLPIEDQISLLKGAAVEICHIVLNTTFCLQTQNFLCGPLRYTIEDGARVSPTVGFQVEFLELLFHFHGTLRKLQLQEPEYVLLAAMALFSPDRPGVTQRDEIDQLQEEMALTLQSYIKGQQRRPRDRFLYAKLLGLLAELRSINEAYGYQIQHIQGLSAMMPLLQEICS
B3: RXRb: Retinoic X Receptor β (NR2B2), cDNA driver (protein, UniProt P28702 1-533, looked up)
Retinoic acid receptor …: MSWAARPPFLPQRHAAGQCGPVGVRKEMHCGVASRWRRRRPWLDPAAAAAAAVAGGEQQTPEPEPGEAGRDGMGDSGRDSRSPDSSSPNPLPQGVPPPSPPGPPLPPSTAPSLGGSGAPPPPPMPPPPLGSPFPVISSSMGSPGLPPPAPPGFSGPVSSPQINSTVSLPGGGSGPPEDVKPPVLGVRGLHCPPPPGGPGAGKRLCAICGDRSSGKHYGVYSCEGCKGFFKRTIRKDLTYSCRDNKDCTVDKRQRNRCQYCRYQKCLATGMKREAVQEERQRGKDKDGDGEGAGGAPEEMPVDRILEAELAVEQKSDQGVEGPGGTGGSGSSPNDPVTNICQAADKQLFTLVEWAKRIPHFSSLPLDDQVILLRAGWNELLIASFSHRSIDVRDGILLATGLHVHRNSAHSAGVGAIFDRVLTELVSKMRDMRMDKTELGCLRAIILFNPDAKGLSNPSEVEVLREKVYASLETYCKQKYPEQQGRFAKLLLRLPALRSIGLKCLEHLFFFKLIGDTPIDTFLMEMLEAPHQLA
B4: PPARd: Peroxisome proliferator activated receptor δ (NR1C2), cDNA driver (protein, UniProt Q03181 1-441, looked up)
Peroxisome …: MEQPQEEAPEVREEEEKEEVAEAEGAPELNGGPQHALPSSSYTDLSRSSSPPSLLDQLQMGCDGASCGSLNMECRVCGDKASGFHYGVHACEGCKGFFRRTIRMKLEYEKCERSCKIQKKNRNKCQYCRFQKCLALGMSHNAIRFGRMPEAEKRKLVAGLTANEGSQYNPQVADLKAFSKHIYNAYLKNFNMTKKKARSILTGKASHTAPFVIHDIETLWQAEKGLVWKQLVNGLPPYKEISVHVFYRCQCTTVETVRELTEFAKSIPSFSSLFLNDQVTLLKYGVHEAIFAMLASIVNKDGLLVANGSGFVTREFLRSLRKPFSDIIEPKFEFAVKFNALELDDSDLALFIAAIILCGDRPGLMNVPRVEAIQDTILRALEFHLQANHPDAQYLFPKLLQKMADLRQLVTEHAQMMQRIKKTETETSLHPLLQEIYKDMY
B5: PXR: Pregnane X Receptor (NR1I2), cDNA driver (protein, UniProt O75469 1-434, looked up)
Nuclear receptor subfamily 1 …: MEVRPKESWNHADFVHCEDTESVPGKPSVNADEEVGGPQICRVCGDKATGYHFNVMTCEGCKGFFRRAMKRNARLRCPFRKGACEITRKTRRQCQACRLRKCLESGMKKEMIMSDEAVEERRALIKRKKSERTGTQPLGVQGLTEEQRMMIRELMDAQMKTFDTTFSHFKNFRLPGVLSSGCELPESLQAPSREEAAKWSQVRKDLCSLKVSLQLRGEDGSVWNYKPPADSGGKEIFSLLPHMADMSTYMFKGIISFAKVISYFRDLPIEDQISLLKGAAFELCQLRFNTVFNAETGTWECGRLSYCLEDTAGGFQQLLLEPMLKFHYMLKKLQLHEEEYVLMQAISLFSPDRPGVLQHRVVDQLQEQFAITLKSYIECNRPQPAHRFLFLKIMAMLTELRSINAQHTQRLLRIQDIHPFATPLMQELFGITGS
B6: FXR: Farnesoid X Receptor (NR1H4), cDNA driver (protein, UniProt Q96RI1 1-486, looked up)
Bile acid receptor: MVMQFQGLENPIQISPHCSCTPSGFFMEMMSMKPAKGVLTEQVAGPLGQNLEVEPYSQYSNVQFPQVQPQISSSSYYSNLGFYPQQPEEWYSPGIYELRRMPAETLYQGETEVAEMPVTKKPRMGASAGRIKGDELCVVCGDRASGYHYNALTCEGCKGFFRRSITKNAVYKCKNGGNCVMDMYMRRKCQECRLRKCKEMGMLAECMYTGLLTEIQCKSKRLRKNVKQHADQTVNEDSEGRDLRQVTSTTKSCREKTELTPDQQTLLHFIMDSYNKQRMPQEITNKILKEEFSAEENFLILTEMATNHVQVLVEFTKKLPGFQTLDHEDQIALLKGSAVEAMFLRSAEIFNKKLPSGHSDLLEERIRNSGISDEYITPMFSFYKSIGELKMTQEEYALLTAIVILSPDRQYIKDREAVEKLQEPLLDVLQKLCKIHQPENPQHFACLLGRLTELRTFNHHHAEMLMSWRVNDHKFTPLLCEIWDVQ

Experiments:
[1] = tested on: hMyoD promoter; assay: NHR-promoter luciferase screen, hMyoD promoter; type: cell-based, human; settings: for Luc. act., normalized to lacZ / Normalized Luc. act., normalized to control: MyoD promoter reporter, co-transfected HR, without or with its ligand; for Normalized Luc. act., normalized to control: relative to control; for luciferase activity normalized to lacZ activity and to a control, hMyoD: hMyoD promoter-luciferase, CV-1 cells, NHR +/- ligand, control = 1.00
How it was run: (§1)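 CV-1 cells were co-transfected with 50 ng NHR (homodimer or NHR/RXR heterodimer), 100 ng promoter-luciferase construct and 50 ng LacZ. Luciferase was normalized to LacZ and to a no-NHR/no-ligand control.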

[2] = tested on: mUCP1 promoter; assay: NHR-promoter luciferase screen, mUCP1 promoter; type: cell-based, mouse; settings: for Luc. act., normalized to lacZ / Normalized Luc. act., normalized to control: mUCP1 promoter reporter, co-transfected HR, with or without its ligand; for Normalized Luc. act., normalized to control: relative to control; for luciferase activity normalized to lacZ activity and to a control, mUCP!: mUCP! promoter-luciferase, CV-1 cells, NHR +/- ligand, control = 1.00
How it was run: as §1

[3] = tested on: hPOMC promoter; assay: NHR-promoter luciferase screen, hPOMC promoter; type: cell-based, human; settings: for Luc. act., normalized to lacZ / Normalized Luc. act., normalized to control: hPOMC promoter, HR/ligand component; for hPOMC promoter reporter activity: transcription factor +/- ligand, control = 1.00
How it was run: as §1

[4] = tested on: mDio2 promoter; assay: NHR-promoter luciferase screen, mDio2 promoter; type: cell-based, mouse; settings: for Luc. act., normalized to lacZ / Normalized Luc. act., normalized to control: Dio2, HR component without or with its ligand; for mDio2 promoter reporter activity: transcription factor +/- ligand, control = 1.00
How it was run: as §1

[5] = tested on: hTNFa promoter; assay: NHR-promoter luciferase screen, hTNFa promoter; type: cell-based, human; settings: for Luc. act., normalized to lacZ / Normalized Luc. act., normalized to control: TNFa promoter, HR component without or with ligand; for hTNFa promoter reporter activity: transcription factor +/- ligand, control = 1.00
How it was run: as §1

[6] = tested on: SREBP1c promoter; assay: NHR-promoter luciferase screen, SREBP1c promoter; type: cell-based, mouse; settings: for Luc. act., normalized to lacZ / Normalized Luc. act., normalized to control: SREBP1c promoter, HR component without or with ligand; for mSREBP1-c promoter reporter activity: transcription factor +/- ligand, control = 1.00
How it was run: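 CV-1 cells co-transfected with 50 ng NHR (homodimer or NHR/RXR heterodimer), 100 ng promoter-luciferase and 50 ng LacZ. Luciferase read at 48 h, normalised to LacZ and to a no-NHR/no-ligand control.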

Molecule | Luc. act., normalized to lacZ [1] | Normalized Luc. act., normalized to control [1] | luciferase activity normalized to lacZ activity and to a control, hMyoD [1] | Luc. act., normalized to lacZ [2] | Normalized Luc. act., normalized to control [2] | luciferase activity normalized to lacZ activity and to a control, mUCP! [2] | Luc. act., normalized to lacZ [3] | Normalized Luc. act., normalized to control [3] | hPOMC promoter reporter activity [3] | Luc. act., normalized to lacZ [4] | Normalized Luc. act., normalized to control [4] | mDio2 promoter reporter activity [4] | Luc. act., normalized to lacZ [5] | Normalized Luc. act., normalized to control [5] | hTNFa promoter reporter activity [5] | Luc. act., normalized to lacZ [6] | Normalized Luc. act., normalized to control [6] | mSREBP1-c promoter reporter activity [6]
B1 | 104.5 | 1.6 | 1.65 | 5.0 | 1.1 | 1.13 | 3.7 | 0.9 | 0.87 | 35.2 | 2.2 | 2.24 | 1458.6 | 1.5 | 1.48 | 1052.4 | 3.3 | 3.27
B2 | 51.2 | 0.8 | 0.81 | 3.3 | 0.7 | 0.74 | 4.3 | 1.0 | 1.00 | 18.4 | 1.2 | 1.17 | 908.2 | 0.9 | 0.92 | 312.9 | 1.0 | 0.97
B3 | 54.3 | 0.9 | 0.86 | 0.9 | 0.2 | 0.21 | – | 0.0 | 0.00 | 22.8 | 1.5 | 1.45 | 1036.3 | 1.1 | 1.05 | 544.4 | 1.7 | 1.69
B4 | 59.6 | 0.9 | 0.94 | 3.5 | 0.8 | 0.79 | 3.8 | 0.9 | 0.89 | 19.1 | 1.2 | 1.21 | 1138.3 | 1.2 | 1.16 | 658.7 | 2.0 | 2.04
B5 | 50.6 | 0.8 | 0.80 | 2.1 | 0.5 | 0.47 | 4.2 | 1.0 | 0.98 | 32.7 | 2.1 | 2.08 | 1152.4 | 1.2 | 1.17 | 486.8 | 1.5 | 1.51
B6 | 36.5 | 0.6 | 0.58 | 4.2 | 1.0 | 0.95 | 2.8 | 0.6 | 0.65 | 20.2 | 1.3 | 1.29 | 974.6 | 1.0 | 0.99 | 551.0 | 1.7 | 1.71
